Results reported in patent US20210015937A1 (CRESCENDO BIOLOGICS, published 2021).
Substitutions are numbered along the chain they refer to.

Assays:
[1] = biological target: T1, human PD-1 expressed on cells (human, UniProt Q15116 25-288); experiment: FMAT inhibition of human Fc tagged PD-L1 binding to CHO human PD-1 cells
T1 construct: also called CHO human PD-1 cells; Jurkat reporter cell line expressing human PD-1
Method: All reagents and serially diluted VH were prepared in FMAT assay buffer. […] Plates were incubated for 2 hours at room temperature then fluorescence measured in the FL2 (502 nm-537 nm) and FL5 (677-800 nm) channels on the Mirrorball plate reader (TTP) following excitation at 488 nm and 640 nm. Data was expressed as a % of the total binding control (i.e. % control) after subtraction of the background signal determined from the non-specific binding control wells.

[2] = biological target: T1, human PD-1 expressed on cells; experiment: cell-based or functional assay
[3] = biological target: T1, human PD-1 expressed on cells; experiment: flow cytometry (Intellicyte) on anti-CD3/anti-CD28 stimulated human CD4+ T cells; His-tagged VH detected with anti-HIS biotin and streptavidin AlexaFluor488
Method: (§1) FIG. 2. CD4+ T cells were stimulated with anti-CD3 and anti-CD28. Cells were stained with HIS tagged VH plus anti-HIS tag labelled with biotin and streptavidin AlexaFluor488. Cells were analysed using Intellicyte® cytometer.
(§2) Binding onto human activated T cells was measured by cytometry. PBMC or magnetically isolated T cells were isolated from leukocytes cones and cells were incubated in 96 well plates coated with anti-CD3 (OKT3) at 5 μg/ml. Anti-CD28 (CD28.2) was added at 1 μg/ml in RPMI media and foetal bovine serum. After 72-96 hours, cells were harvested and stained using standard flow cytometry methods. […] Fluorescently labelled anti-CD4 and anti-CD8 were included in PBMC cultures and a live/dead dye. Stained cells were analysed using the IQue cytometer (Intellicyte). EC50 were calculated from the titration curve of median fluorescence of Humabody, gating on CD4+ or CD8+ cells if using mixed cells.

[4] = biological target: T1, human PD-1 expressed on cells; experiment: cell-based or functional assay; remark: listed apart in the source
[5] = biological target: T2, human LAG-3 expressed on cells (human, UniProt P18627 23-525); experiment: cell-based or functional assay
T2 sequence: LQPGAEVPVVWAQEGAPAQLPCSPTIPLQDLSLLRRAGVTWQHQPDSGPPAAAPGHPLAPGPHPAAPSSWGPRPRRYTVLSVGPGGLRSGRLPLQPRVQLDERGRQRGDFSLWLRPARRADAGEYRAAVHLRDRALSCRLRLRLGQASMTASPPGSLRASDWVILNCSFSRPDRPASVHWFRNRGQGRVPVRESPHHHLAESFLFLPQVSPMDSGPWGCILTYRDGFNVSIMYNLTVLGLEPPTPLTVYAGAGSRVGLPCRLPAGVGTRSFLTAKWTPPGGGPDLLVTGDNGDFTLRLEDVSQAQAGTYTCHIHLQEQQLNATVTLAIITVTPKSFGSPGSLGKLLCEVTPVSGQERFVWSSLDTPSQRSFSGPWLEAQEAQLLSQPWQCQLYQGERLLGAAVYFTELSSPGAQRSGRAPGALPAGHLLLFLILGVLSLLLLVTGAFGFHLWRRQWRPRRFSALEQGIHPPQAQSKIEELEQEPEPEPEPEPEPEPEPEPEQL

[6] = biological target: T3, recombinant human LAG-3-Fc (human, UniProt P18627 23-450); experiment: BLI (Octet); human LAG-3-Fc captured on protein G biosensors, 1:1 fit
T3 construct: also called human LAG-3 (R&D Systems cat no. 2319-L3); LAG3 antigen
T3 sequence: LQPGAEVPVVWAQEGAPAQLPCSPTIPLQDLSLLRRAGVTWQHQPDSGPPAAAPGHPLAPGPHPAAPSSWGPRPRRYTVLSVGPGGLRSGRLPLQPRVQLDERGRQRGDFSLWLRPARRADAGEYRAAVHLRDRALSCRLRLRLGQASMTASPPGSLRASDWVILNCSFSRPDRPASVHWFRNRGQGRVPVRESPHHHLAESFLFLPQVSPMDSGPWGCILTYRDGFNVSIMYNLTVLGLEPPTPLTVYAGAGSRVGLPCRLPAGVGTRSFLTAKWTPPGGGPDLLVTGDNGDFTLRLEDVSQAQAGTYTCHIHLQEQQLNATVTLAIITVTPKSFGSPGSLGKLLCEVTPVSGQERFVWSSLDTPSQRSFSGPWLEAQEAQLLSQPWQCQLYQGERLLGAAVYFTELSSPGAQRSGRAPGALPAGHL
Method: Binding kinetics for multi-valent and bispecific VH were also measured in real-time bio-layer interferometer based biosensor Octet (ForteBio). […] All the binding studies were performed in HBS-ET Octet kinetics buffer. Biosensors were washed in Octet kinetics buffer in between different steps. […] The contact time for each of the association steps was 150 seconds and the dissociation step was 400 seconds. […] To compare the constructs, kinetic association (kₐ) and dissociation (kd) rate constants were determined by processing and fitting the data to a 1:1 binding model using ForteBio Analysis software.

[7] = biological target: T4, recombinant human PD-1 Fc chimera (human, UniProt Q15116 25-167); experiment: HTRF binding; His-tagged construct with PD-1-Fc, anti-human-Fc cryptate and anti-His-D2
T4 construct: Bought Fc chimera; also called human PD-1 (R&D systems cat no. 1086-PD); PD1 antigen
T4 sequence (Q15116 25-167 limits assumed, change not shown): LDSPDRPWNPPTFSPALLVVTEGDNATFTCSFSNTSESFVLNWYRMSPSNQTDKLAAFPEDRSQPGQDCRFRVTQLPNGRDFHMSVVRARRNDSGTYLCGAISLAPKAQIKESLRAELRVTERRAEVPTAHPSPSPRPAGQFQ
Method: Binding to PD-1 was measured by HTRF (homogeneous time resolved fluorescence). Serially diluted HIS-tagged constructs were prepared in assay buffer containing PBS, 0.1% BSA and 0.4M Potassium Fluoride. […] Time-resolved fluorescent emission at 620 nm and 665 nm was measured following excitation at 337 nm on the BMG PHERAstar plate reader. The HTRF ratio were calculated ((665 nm emission/620 nm emission)*10000) and the data corrected for (non-specific binding) to give the specific binding signal. EC50 were calculated from the titration curve (table 8 below).

[8] = biological target: T3, recombinant human LAG-3-Fc; experiment: HTRF binding; His-tagged construct with LAG-3-Fc, anti-human-Fc cryptate and anti-His-D2
[9] = biological target: T3, recombinant human LAG-3-Fc; experiment: competition ELISA; LAG-3-Fc pre-incubated with VH, binding to coated LSECtin
From the text: (§3) The plate was blocked with 3% Marvel skimmed milk powder in PBS. […] Wash steps were done 3 times with PBS 0.05% Tween. Colour was developed using TMB and 0.5M sulphuric acid solution.

[10] = biological target: T3, recombinant human LAG-3-Fc; experiment: competition ELISA; LAG-3-Fc pre-incubated with VH, binding to coated Galectin-3
From the text: as §3

[11] = biological target: T5, LAG-3 and PD-1 on activated human T cells (human, UniProt P18627 23-525; Q15116 25-288); experiment: flow cytometry (Intellicyte) on anti-CD3/anti-CD28 stimulated human CD4+ T cells; His-tagged VH detected with anti-HIS biotin and streptavidin AlexaFluor488
T5 construct: also called huCD4+ T cells; huCD8+ T cells
T5 sequence (Q15116 25-288 limits assumed, one chain of several): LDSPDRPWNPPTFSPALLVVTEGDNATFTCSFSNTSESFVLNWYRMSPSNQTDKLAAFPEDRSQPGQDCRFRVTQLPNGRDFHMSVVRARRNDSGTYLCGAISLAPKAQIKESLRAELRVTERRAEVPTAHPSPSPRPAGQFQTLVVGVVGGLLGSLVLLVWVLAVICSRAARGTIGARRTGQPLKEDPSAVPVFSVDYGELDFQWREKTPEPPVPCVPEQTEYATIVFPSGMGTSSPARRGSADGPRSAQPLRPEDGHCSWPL
Method: as §1, §2

T1 sequence (Q15116 25-288 limits assumed): as the sequence (Q15116 25-288 limits assumed, one chain of several) above

B1: VH 2.80 (VHH)
VHH: EVQLVESGGGLVKPGGSLRLSCAASGFTFSDSSMTWMRQAPGKGLEWVSYISSGGGVKFYADSVKGRFTISRDNAKNSLYLQMNSLRAEDTAVYYCAREAPLRLGESPHDAFDISGQGTMVTVSS
notes: Human VH single domain antibody against PD-1
B1 showed an IC50 [1] of 1.82 nM.

B2: VH 2.63 (VHH)
VHH: B1 VHH with A61T, E89D
notes: as for B1
For B2, the “EC50 (M), NFAT-Luciferase Reporter Gene assay (PD-1:PD-L1)” value (from here on “EC50 (M) … (PD-1:PD-L1)”) [2] was 1.2e-08 M, the IC50 [1] was 4.5 nM and the “EC50 (read off the curve)” value [3] was roughly 2 nM.

B3: VH 2.92 (VHH)
VHH: B1 VHH with S32E
notes: as for B1
In the case of B3, the “EC50 (M) … (PD-1:PD-L1)” value [2] is reported as 1.4e-08 M and the IC50 [1] is reported as 2.8 nM.

B4: VH1.1-6GS-VH1.1-6GS-VH2.63-His6 (bispecific antibody)
chain: EVQLVESGGGVVRPGGSLRLSCSASGFTFDDYGMSWVRQAPGKGLEWVSGIHWNGGNSGYADSVKGRFTISRDNAKNSLYLQMNSLRAEDTALYYCARIPREDCSSASCYTDAIDFWGPGTMVTVSSGGGGSGGGGSGGGGSGGGGSGGGGSGGGGSEVQLVESGGGVVRPGGSLRLSCSASGFTFDDYGMSWVRQAPGKGLEWVSGIHWNGGNSGYADSVKGRFTISRDNAKNSLYLQMNSLRAEDTALYYCARIPREDCSSASCYTDAIDFWGPGTMVTVSSGGGGSGGGGSGGGGSGGGGSGGGGSGGGGSEVQLVESGGGLVKPGGSLRLSCAASGFTFSDSSMTWMRQAPGKGLEWVSYISSGGGVKFYTDSVKGRFTISRDNAKNSLYLQMNSLRADDTAVYYCAREAPLRLGESPHDAFDISGQGTMVTVSSAAAHHHHHH
notes: Single-chain fusion of two anti-LAG-3 VH 1.1 and one anti-PD-1 VH 2.63; The entry includes AAA-His6; also called 1.1-6GS-1.1-6GS-2.63
In the case of B4, the “potency in the PD-1:PD-L1 NFAT-luciferase reporter assay, fold lower than monoclonal antibodies” value [4] is reported as greater than 30 fold, the “EC50 (M) … (PD-1:PD-L1)” value [2] is reported as 4.2e-08 M and the “EC50 (M), NFAT-Luciferase Reporter Gene assay (LAG-3:MHCII)” value [5] is reported as 3.3e-09 M. For the same binder, the Kd [6] was 0.399 nM, the koff [6] was 0.000305 s⁻¹ and the kon [6] was 764000 M⁻¹ s⁻¹. It also gave an EC50 [7] of 0.59 nM and an EC50 [8] of 0.51 nM.

B5: VH1.1-6GS-VH1.1-9GS-VH2.63-His6 (bispecific antibody)
chain: EVQLVESGGGVVRPGGSLRLSCSASGFTFDDYGMSWVRQAPGKGLEWVSGIHWNGGNSGYADSVKGRFTISRDNAKNSLYLQMNSLRAEDTALYYCARIPREDCSSASCYTDAIDFWGPGTMVTVSSGGGGSGGGGSGGGGSGGGGSGGGGSGGGGSEVQLVESGGGVVRPGGSLRLSCSASGFTFDDYGMSWVRQAPGKGLEWVSGIHWNGGNSGYADSVKGRFTISRDNAKNSLYLQMNSLRAEDTALYYCARIPREDCSSASCYTDAIDFWGPGTMVTVSSGGGGSGGGGSGGGGSGGGGSGGGGSGGGGSGGGGSGGGGSGGGGSEVQLVESGGGLVKPGGSLRLSCAASGFTFSDSSMTWMRQAPGKGLEWVSYISSGGGVKFYTDSVKGRFTISRDNAKNSLYLQMNSLRADDTAVYYCAREAPLRLGESPHDAFDISGQGTMVTVSSAAAHHHHHH
notes: Single-chain fusion of two anti-LAG-3 VH 1.1 and one anti-PD-1 VH 2.63; The entry includes AAA-His6; also called 1.1-6GS-1.1-9GS-2.63
In the case of B5, the “potency in the PD-1:PD-L1 NFAT-luciferase reporter assay, fold lower than monoclonal antibodies” value [4] is reported as greater than 30 fold, the “EC50 (M) … (PD-1:PD-L1)” value [2] is reported as 3e-08 M and the “EC50 (M), NFAT-Luciferase Reporter Gene assay (LAG-3:MHCII)” value [5] is reported as 3.2e-09 M. It also gave a Kd [6] of 0.397 nM, a koff [6] of 0.000303 s⁻¹ and a kon [6] of 762000 M⁻¹ s⁻¹. For the same binder, the IC50 [9] was 54 nM, the IC50 [10] was 38 nM and the EC50 [7] was 0.6 nM. For the same binder, the EC50 [8] was 0.78 nM and the “EC50 (read off the curve)” value [11] was roughly 2 nM.
